Reference: PMC5775426

What was measured:
[1] = target: AV2 protein of tomato leaf curl Palampur virus, untagged, in N. benthamiana leaves (Tomato leaf curl Palampur virus); assay: SDS-PAGE and western blot; leaf extracts of N. benthamiana (PVX-infiltrated at 14 dpi, ToLCPalV-infected, TRV-infiltrated), boiled 5 minutes, 10% SDS-PAGE, detection with AV2 antiserum; dimer told from the band's size
[2] = target: AV2Δ10N, untagged, from PVX-AV2Δ10N in N. benthamiana leaves (Tomato leaf curl Palampur virus); assay: as above

Substance “AV2 protein of tomato leaf curl Palampur virus, untagged, in N. benthamiana leaves (natural protein)” has a stoichiometry N [1] of 2.

Work on “AV2Δ10N, untagged, from PVX-AV2Δ10N in N. benthamiana leaves (domain or fragment)” yielded a stoichiometry N [2] of 2.
